The text below walks through data of article PMC6995008 (Proceedings of the National Academy of Sciences of the …, 2020).

In series [1] the target is RABV SAD-B19 large polymerase protein (L), 6xHis-tagged (rabies virus (RABV) SAD-B19, UniProt P16289 1-2127). Kind of series: negative-stain electron microscopy.
Series [2] concerns the molecule itself. Kind of series: negative-stain electron microscopy.

RABV SAD-B19 large polymerase protein (L), 6xHis-tagged, sequence (P16289 whole entry): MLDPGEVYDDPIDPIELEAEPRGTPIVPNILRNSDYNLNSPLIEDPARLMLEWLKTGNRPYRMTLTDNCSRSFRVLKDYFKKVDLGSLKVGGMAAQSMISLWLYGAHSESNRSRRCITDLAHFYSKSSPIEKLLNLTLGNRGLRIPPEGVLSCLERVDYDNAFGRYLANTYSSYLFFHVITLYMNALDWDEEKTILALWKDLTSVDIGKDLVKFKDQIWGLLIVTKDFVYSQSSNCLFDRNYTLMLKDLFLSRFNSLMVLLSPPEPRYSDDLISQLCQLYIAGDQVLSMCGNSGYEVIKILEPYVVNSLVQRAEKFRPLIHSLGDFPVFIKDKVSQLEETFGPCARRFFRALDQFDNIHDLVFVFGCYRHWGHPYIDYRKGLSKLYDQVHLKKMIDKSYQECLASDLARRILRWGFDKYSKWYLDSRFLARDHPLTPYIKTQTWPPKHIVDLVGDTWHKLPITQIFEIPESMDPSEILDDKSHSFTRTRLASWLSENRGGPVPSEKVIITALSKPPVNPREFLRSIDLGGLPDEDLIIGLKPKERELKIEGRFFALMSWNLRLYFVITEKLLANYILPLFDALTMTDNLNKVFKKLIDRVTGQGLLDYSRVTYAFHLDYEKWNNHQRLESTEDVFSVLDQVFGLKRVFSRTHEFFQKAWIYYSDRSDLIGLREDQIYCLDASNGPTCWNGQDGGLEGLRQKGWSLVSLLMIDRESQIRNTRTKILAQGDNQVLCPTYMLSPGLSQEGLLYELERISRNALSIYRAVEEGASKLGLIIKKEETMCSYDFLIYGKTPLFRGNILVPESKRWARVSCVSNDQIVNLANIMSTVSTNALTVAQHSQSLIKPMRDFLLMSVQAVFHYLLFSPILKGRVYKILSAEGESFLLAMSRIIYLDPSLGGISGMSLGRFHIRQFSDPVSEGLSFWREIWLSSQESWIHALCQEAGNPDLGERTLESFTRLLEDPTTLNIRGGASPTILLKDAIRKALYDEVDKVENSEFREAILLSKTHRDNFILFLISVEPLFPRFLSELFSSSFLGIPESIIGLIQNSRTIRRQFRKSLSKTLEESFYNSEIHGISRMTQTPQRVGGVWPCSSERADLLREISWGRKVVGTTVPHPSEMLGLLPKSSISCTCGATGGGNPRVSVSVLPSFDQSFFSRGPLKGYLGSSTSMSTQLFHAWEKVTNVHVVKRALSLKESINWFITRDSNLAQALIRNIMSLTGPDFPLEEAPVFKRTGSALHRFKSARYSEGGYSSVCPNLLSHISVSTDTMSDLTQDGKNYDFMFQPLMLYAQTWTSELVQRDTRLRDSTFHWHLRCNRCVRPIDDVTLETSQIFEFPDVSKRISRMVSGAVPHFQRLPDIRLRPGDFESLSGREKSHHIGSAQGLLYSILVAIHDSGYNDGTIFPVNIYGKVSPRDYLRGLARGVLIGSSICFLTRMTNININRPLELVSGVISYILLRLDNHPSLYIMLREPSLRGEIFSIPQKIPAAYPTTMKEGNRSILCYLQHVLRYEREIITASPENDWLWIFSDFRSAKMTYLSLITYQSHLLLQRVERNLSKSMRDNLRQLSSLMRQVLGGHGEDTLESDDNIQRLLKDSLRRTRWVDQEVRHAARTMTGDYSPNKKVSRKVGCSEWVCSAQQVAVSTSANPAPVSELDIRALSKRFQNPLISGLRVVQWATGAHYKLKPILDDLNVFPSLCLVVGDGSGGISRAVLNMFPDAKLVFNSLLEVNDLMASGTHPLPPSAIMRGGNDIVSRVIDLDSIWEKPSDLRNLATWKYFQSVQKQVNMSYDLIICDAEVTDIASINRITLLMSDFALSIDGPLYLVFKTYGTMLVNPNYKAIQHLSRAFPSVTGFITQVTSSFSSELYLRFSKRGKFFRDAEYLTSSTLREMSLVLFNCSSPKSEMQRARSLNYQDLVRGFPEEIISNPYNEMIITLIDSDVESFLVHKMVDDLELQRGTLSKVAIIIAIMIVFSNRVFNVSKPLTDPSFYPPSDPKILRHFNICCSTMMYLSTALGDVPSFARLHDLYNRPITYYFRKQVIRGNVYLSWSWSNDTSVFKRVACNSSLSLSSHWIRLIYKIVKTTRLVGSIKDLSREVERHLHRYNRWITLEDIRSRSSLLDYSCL

B1: RABV SAD-B19 full-length P (PFL) with C-terminal StrepII tag (natural protein)
chain: MSKIFVNPSAIRAGLADLEMAEETVDLINRNIEDNQAHLQGEPIEVDNLPEDMGRLHLDDGKSPNHGEIAKVGEGKYREDFQMDEGEDPSFLFQSYLENVGVQIVRQMRSGERFLKIWSQTVEEIISYVAVNFPNPPGKSSEDKSTQTTGRELKKETTPTPSQRESQSSKARMAAQIASGPPALEWSATNEEDDLSVEAEIAHQIAESFSKKYKFPSRSSGILLYNFEQLKMNLDDIVKEAKNVPGVTRLAHDGSKLPLRCVLGWVALANSKKFQLLVESDKLSKIMQDDLNRYTSC
Take B1: in series [1], the binding result is listed as “binds”. In addition, the “stoichiometry N” value in series [2] is 2.
